In article PMC4930482 one finds percent of parent data, which are given here for three substances.

What all share (experiment): coIP
One assay addresses RFP-RNF26 (UniProt Q9BY78). The settings on record: n = 3; parent: est. 100; read off a plot.
The target in a further assay is HA-RNF26 (UniProt Q9BY78). The settings on record: n = 3; parent: est. 100; read off a plot.
Assay [1] deals with RNF26, wild type (coIP of Figures 5A and 5B) (UniProt Q9BY78). The settings on record: HEK293T cells; n = 3; parent: est. 100; read off a plot.

For FLAG-EPS15 (from UniProt P42566) UIM*, the percent of parent in the assay with RFP-RNF26 was 14 % Co-IP.
As for GFP-TAX1BP1 (from UniProt Q86VP1) UBZ2*, the percent of parent with HA-RNF26 was found to be 39 % Co-IP.
For the substance “TOLLIP, wild type (coIP of Figure 5B) (from UniProt Q9H0E2) CUE*”, the percent of parent in assay [1] is 13 % Co-IP.
